Source: patent US20250281611A1 (BIOSCEPTRE AUST, published 2025)

B1: CD33 BRIDGE variant B28 (Fab)
light: DFPGHNYTTRNILPGLNITSTFHKTSGSGKEPKSSDKTHTGSDIQMTQSPSSLSASVGDRVTITCRASESVDNYGISFMNWFQQKPGKAPKLLIYAASNQGSGVPSRFSGSGSGTDFTLTISSLQPDDFATYYCQQSKEVPWTFGQGTKVEIKRTVAAPSVFIFPPSDEQLKSGTASVVCLLNNFYPREAKVQWKVDNALQSGNSQESVTEQDSKDSTYSLSSTLTLSKADYEKHKVYACEVTHQGLSSPVTKSFNRGECHHHHHH
heavy: QVQLVQSGAEVKKPGSSVKVSCKASGYTFTDYNMHWVRQAPGQGLEWIGYIYPYNGGTGYNQKFKSKATITADESTNTAYMELSSLRSEDTAVYYCARGRPAMDYWGQGTLVTVSSASTKGPSVFPLAPSSKSTSGGTAALGCLVKDYFPEPVTVSWNSGALTSGVHTFPAVLQSSGLYSLSSVVTVPSSSLGTQTYICNVNHKPSNTKVDKKVEPKSCHHHHHH
notes: Lintuzumab-based Fab bridging molecule
B2: CD33 BRIDGE variant B24 (Fab)
light: DFPGHNYTTRNILPGLNITSTFHKTSGSGKGGGGSEPKSSDKTHTDIQMTQSPSSLSASVGDRVTITCRASESVDNYGISFMNWFQQKPGKAPKLLIYAASNQGSGVPSRFSGSGSGTDFTLTISSLQPDDFATYYCQQSKEVPWTFGQGTKVEIKRTVAAPSVFIFPPSDEQLKSGTASVVCLLNNFYPREAKVQWKVDNALQSGNSQESVTEQDSKDSTYSLSSTLTLSKADYEKHKVYACEVTHQGLSSPVTKSFNRGECHHHHHH
heavy: B1 heavy
notes: as for B1
B3: CD33 BRIDGE variant B26 (Fab, V domains shown)
VH: QVQLVQSGAEVKKPGSSVKVSCKASGYTFTDYNMHWVRQAPGQGLEWIGYIYPYNGGTGYNQKFKSKATITADESTNTAYMELSSLRSEDTAVYYCARGRPAMDYWGQGTLVTVSS
VL: DIQMTQSPSSLSASVGDRVTITCRASESVDNYGISFMNWFQQKPGKAPKLLIYAASNQGSGVPSRFSGSGSGTDFTLTISSLQPDDFATYYCQQSKEVPWTFGQGTKVEIKR
notes: as for B1
B4: CD33 BRIDGE variant B27 (Fab)
light: DFPGHNYTTRNILPGLNITSGGGGSEPKSSDKTHTGSDIQMTQSPSSLSASVGDRVTITCRASESVDNYGISFMNWFQQKPGKAPKLLIYAASNQGSGVPSRFSGSGSGTDFTLTISSLQPDDFATYYCQQSKEVPWTFGQGTKVEIKRTVAAPSVFIFPPSDEQLKSGTASVVCLLNNFYPREAKVQWKVDNALQSGNSQESVTEQDSKDSTYSLSSTLTLSKADYEKHKVYACEVTHQGLSSPVTKSFNRGECHHHHHH
heavy: B1 heavy
notes: as for B1
B5: CD33 BRIDGE variant B29 (Fab)
light: DFPGHNYTTRNILPGLNITSTFHKTSGSGKGSEPKSSDKTHTGSDIQMTQSPSSLSASVGDRVTITCRASESVDNYGISFMNWFQQKPGKAPKLLIYAASNQGSGVPSRFSGSGSGTDFTLTISSLQPDDFATYYCQQSKEVPWTFGQGTKVEIKRTVAAPSVFIFPPSDEQLKSGTASVVCLLNNFYPREAKVQWKVDNALQSGNSQESVTEQDSKDSTYSLSSTLTLSKADYEKHKVYACEVTHQGLSSPVTKSFNRGECHHHHHH
heavy: B1 heavy
notes: as for B1
B6: CD33 BRIDGE variant B30 (Fab)
light: DFPGHNYTTRNILPGLNITSTFHKTSGSGKGGGGSEPKSSDKTHTGSDIQMTQSPSSLSASVGDRVTITCRASESVDNYGISFMNWFQQKPGKAPKLLIYAASNQGSGVPSRFSGSGSGTDFTLTISSLQPDDFATYYCQQSKEVPWTFGQGTKVEIKRTVAAPSVFIFPPSDEQLKSGTASVVCLLNNFYPREAKVQWKVDNALQSGNSQESVTEQDSKDSTYSLSSTLTLSKADYEKHKVYACEVTHQGLSSPVTKSFNRGECHHHHHH
heavy: B1 heavy
notes: as for B1
B7: CD33 BRIDGE variant B31 (Fab)
light: DFPGHNYTTRNILPGLNITSEPKSSDKTHTGGGGSDIQMTQSPSSLSASVGDRVTITCRASESVDNYGISFMNWFQQKPGKAPKLLIYAASNQGSGVPSRFSGSGSGTDFTLTISSLQPDDFATYYCQQSKEVPWTFGQGTKVEIKRTVAAPSVFIFPPSDEQLKSGTASVVCLLNNFYPREAKVQWKVDNALQSGNSQESVTEQDSKDSTYSLSSTLTLSKADYEKHKVYACEVTHQGLSSPVTKSFNRGECHHHHHH
heavy: B1 heavy
notes: as for B1
B8: CD33 BRIDGE variant B32 (Fab)
light: DFPGHNYTTRNILPGLNITSGSEPKSSDKTHTGGGGSDIQMTQSPSSLSASVGDRVTITCRASESVDNYGISFMNWFQQKPGKAPKLLIYAASNQGSGVPSRFSGSGSGTDFTLTISSLQPDDFATYYCQQSKEVPWTFGQGTKVEIKRTVAAPSVFIFPPSDEQLKSGTASVVCLLNNFYPREAKVQWKVDNALQSGNSQESVTEQDSKDSTYSLSSTLTLSKADYEKHKVYACEVTHQGLSSPVTKSFNRGECHHHHHH
heavy: B1 heavy
notes: as for B1
B9: CD33 BRIDGE variant B33 (Fab)
light: DFPGHNYTTRNILPGLNITSGGGGSEPKSSDKTHTGGGGSDIQMTQSPSSLSASVGDRVTITCRASESVDNYGISFMNWFQQKPGKAPKLLIYAASNQGSGVPSRFSGSGSGTDFTLTISSLQPDDFATYYCQQSKEVPWTFGQGTKVEIKRTVAAPSVFIFPPSDEQLKSGTASVVCLLNNFYPREAKVQWKVDNALQSGNSQESVTEQDSKDSTYSLSSTLTLSKADYEKHKVYACEVTHQGLSSPVTKSFNRGECHHHHHH
heavy: B1 heavy
notes: as for B1

molecular target: T1, CD33 (UniProt P20138 18-364, limits assumed); test: flow cytometry, MOLM-13 cells, anti-His-FITC detection
T1 construct: whole, on cells; also called Siglec-3; CD33 on MOLM-13 cells
Protocol: (§1) MOLM-13 cells were incubated with different CD33 BRIDGE variants at saturating concentrations. […] The MFI intensity correlates with the number of secondary antibodies bound to the CD33 BRIDGE variants that are only detected if they are bound to the MOLM-13 cells. MFI: median fluorescence intensity. BLItz: Bio-Layer interferometry (BLI) technology using HIS-tag identification tips. […] The higher the MFIR, the stronger the binding.

T1 sequence (P20138 18-364 limits assumed): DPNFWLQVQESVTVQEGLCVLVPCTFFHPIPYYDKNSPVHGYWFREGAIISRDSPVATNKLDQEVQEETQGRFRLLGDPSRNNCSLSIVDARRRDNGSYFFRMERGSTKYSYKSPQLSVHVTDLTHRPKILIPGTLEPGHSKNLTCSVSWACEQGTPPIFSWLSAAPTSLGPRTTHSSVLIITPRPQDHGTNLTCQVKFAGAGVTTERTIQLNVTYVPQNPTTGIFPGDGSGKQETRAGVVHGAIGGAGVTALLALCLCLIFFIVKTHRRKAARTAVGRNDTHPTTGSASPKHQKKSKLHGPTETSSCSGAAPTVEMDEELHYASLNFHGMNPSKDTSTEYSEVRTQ

| Binder | MFI HisTag FITC |
| --- | --- |
| B1 | 6.33 |
| B2 | 6.25 |
| B3 | 5.75 |
| B4 | 5.55 |
| B5 | 5.38 |
| B6 | 6.29 |
| B7 | 7.09 |
| B8 | 6.69 |
| B9 | 6.96 |

molecular target: T2, nfP2X7 CAR 1; test: flow cytometry, CAR T cells, anti-His-FITC, EGFR+ over EGFR- cells
T2 construct: Expressed on T cells with truncated EGFR as marker gene; also called anti-nfP2X7 receptor CAR 1; nfP2X7 targeted CAR on EGFR+ T cells
Protocol: (§2) nfP2X₇ CAR T cells were incubated with different BRiDGE variants at saturating concentrations. […] The MFI intensity correlates with the number of secondary bound antibodies bound to the BRiDGEs that are only detected if they are bound to the CAR T cells. EGFR was used as a marker gene to detect the CAR expression. Thus, the EGFR+ T cell population was defined as the CAR expressing cells and the EGFR− T cell population was defined as the CAR negative subset. MFI: median fluorescence intensity. EGFR: epidermal growth factor receptor. BLItz: Bio-Layer interferometry (BLI) technology using HIS-tag identification tips. HIS-tag MFI Ratio: relative index that is calculated by the testing condition MFI divided by the control MFI, which corresponds to the MFI measured on EGFR+ T cells (defined as CAR positive cells) divided by the MFI measured on the EGFR− T cells (defined as CAR negative cells). […] The higher the MFIR, the stronger the binding.

| Binder | HisTag MFI Ratio of EGFR+/EGFR- |
| --- | --- |
| B1 | 3.2 |
| B2 | 3.5 |
| B3 | 2.8 |
| B4 | 2.8 |
| B5 | 3.4 |
| B6 | 3.3 |
| B7 | 3 |
| B8 | 3.3 |
| B9 | 3.4 |

molecular target: T2, nfP2X7 CAR 1; test: flow cytometry, nfP2X7 CAR T cells (EGFR+), anti-His-FITC detection
Protocol: as §2

| Binder | MFI HisTag FITC in EGFR+ Population |
| --- | --- |
| B1 | 1.58 |
| B2 | 1.82 |
| B3 | 1.22 |
| B4 | 1.2 |
| B5 | 1.73 |
| B6 | 1.63 |
| B7 | 1.34 |
| B8 | 1.59 |
| B9 | 1.69 |

molecular target: T2, nfP2X7 CAR 1; test: flow cytometry, CAR T cells, anti-His-FITC, EGFR+ MFI over background 0.4
Protocol: as §2

| Binder | HisTag MFI Ratio (background 0.4) |
| --- | --- |
| B1 | 4 |
| B2 | 4.6 |
| B3 | 3.1 |
| B4 | 3 |
| B5 | 4.3 |
| B6 | 4.1 |
| B7 | 3.4 |
| B8 | 4 |
| B9 | 4.2 |

molecular target: T1, CD33; test: flow cytometry, MOLM-13 cells, anti-His-FITC detection, ratio to no bridge
Protocol: as §1

| Binder | MFIR HisTag FITC |
| --- | --- |
| B1 | 9.45 |
| B2 | 9.33 |
| B3 | 8.58 |
| B4 | 8.28 |
| B5 | 8.03 |
| B6 | 9.39 |
| B7 | 10.6 |
| B8 | 9.99 |
| B9 | 10.4 |
